Test results: PMC10685657

Target: HA-TRIP12
Test: co-IP (IP-GFP, immunoblot for TRIP12; band intensity printed above lanes)
Settings: HEK293T cells, harvested for lysis 48 h after transfection; HA-TRIP12 co-transfected

ratio to parent: 0.16
Substance: GFP-EZH2 wildtype (from UniProt Q15910) K634R
